# Results as given in patent publication US20160053248A1, “SYSTEMS AND METHODS FOR EVOLVING ENZYMES WITH DESIRED ACTIVITIES” (Potomac Affinity Proteins, LLC, priority 2009, published 2016).
# B1: 77 amino acid prodomain: 77 amino acid subtilisin prodomain (SEQ ID NO: 25) (protein, listed as Bacillus amyloliquefaciens)
# chain: AGKSNGEKKYIVGFKQTMSTMSAAKKKDVISEKGGKVQKQFKYVDAASATLNEKAVKELKKDPSVAYVEEDHVAHAY
# B2: SBT189: D32A mutant of subtilisin, azide-triggered protease (SEQ ID NO: 27) (protein)
# chain: AKCVSYGVAQIKAPALHSQGYTGSNVKVAVLASGIDSSHPDLNVAGGASFVPSETNPFQDNNSHGTHVAGTVLAVAPSASLYAVKVLGADGSGQASWIINGIEWAIANNMDVINMSLGSPSGSAALKAAVDKAVASGVVVVAAAGNSGTSGSSSTVSYPAKYPSVIAVGAVDSSNQRAPFSSVGPELDVMAPGVSICSTLPGGKYGALSGTSMASPHVAGAAALILSKHPNWTNTQVRSSLENTATKLGDSFYYGKGLINVEAAAQ
# modifications: Subtilisin related sequence
# Experiments:
# subtilisin = details: competitive inhibitor of active subtilisin; cited from earlier work
# GA-PFRAL-S-GB = assay: Cleavage kinetics of GA-PFRAL-S-GB by position 166 mutant versus parent enzyme; format: biochemical; details: no azide
# Description: Mutants were selected that cleave the substrate GA-PFRAL-S-GB in response to azide. Phage were bound to the GA-PFRAL-S-GB substrate and collected on IgG-Sepharose. The ability to hydrolyze the fusion protein is selected by washing the beads in 1 mM azide for 5 minutes in the release step. Phage are therefore released or retained from the resin based on the kinetics with which they cleave GA-PFRAL from GB under the triggering condition. Released phage were collected on HSA-Sepharose, acid eluted, neutralized, used to infect fresh E. coli cells, plated out, and colonies counted. Three cycles of selection were carried out. After three rounds of selection, the consensus amino acid at position 166 was threonine. The kinetic properties of the T166 mutant were compared to parent enzyme (SBT189), which has a serine at 166. The T166 mutant hydrolyzed GA-PFRAL-S-GB 1.5-times faster than SBT 189 in 1 mM azide. […] Thus the ratio of triggered rate to intrinsic rate was increased 5-fold by optimizing a single amino acid position in the S1 subsite. This ratio is a quantitative measure of how tightly the enzyme is regulated by the trigger.
# GA-PLFRAL-S-GB = assay: Acylation kinetics (GB release) of pre-formed enzyme-substrate complex monitored by fluorescence; format: biochemical
# From the text: In panels A-C, RSUB1(AF350) represents subtilisin SBT189 conjugated to AF350).
# The acylation reaction: Step 2 describes conversion of the ternary complex into an acyl-enzyme with the concomitant release to the C-terminal portion of the substrate. With substrates used in phage display, the GB domain is released concomitantly with the acylation step. If a fluorescent reporter group is attached to subtilisin, a decrease in energy transfer enables time-dependent quantitation of acylation.
# [1] = test system: Dabcyl-EEDKLFRAL-SATE(EDANS)G; assay: Transient state kinetics with self-quenched FRET peptide: deacylation; format: biochemical; details: SBT189 in 50 mM azide
# Description: The deacylation reaction and product release: A self-quenched FRET peptide that becomes highly fluorescent when cleaved (Dabcyl-EEDKLFRAL-SATE(EDANS)G (SEQ ID NO:16)) was synthesized. This peptide has been used to determine transient state kinetic parameters. Deacylation of SBT189 in 50 mM azide is faster (3.3 s^−1) than the wild type counterpart (1.8 s^−1). The rate of product (Dabcyl-EEDKLFRAL; (SEQ ID NO:17)) release is 6 s^−1 and Kp is 1.2 μM. Product binding is not influenced by azide concentration. Strong product binding of subtilisin-phage to GA-PCOGNATE- is used for the collection of active mutants in the release step in phage selection (see FIG. 5). Binding is constitutive at this step, however, and is not used to increase selectivity.
# GB-LFRAL-SA-GFP = assay: Digestion of GB-LFRAL-SA-GFP fusion protein in E. coli extract (protein gel, MALDI-MS); format: biochemical; details: 20 μM fusion protein, 50 nM SBT189, 10 mM azide, 0.1M KPi, pH 7.2, 22° C.
# Description: In order to evaluate sequence specificity of SBT189 for the cognate sequence identified by phage display, a gene was constructed to direct the synthesis of a fusion of the 56 amino acid B domain (GB) of streptococcal Protein G to a linker comprising the cognate sequence LFRAL-SA (SEQ ID NO:5) followed by GFP. Accordingly, the protein is denoted “GB-LFRAL-SA-GFP”.
# Timepoints were collected as indicated. The fusion protein (20 μM) was mixed with 50 nM of SBT189 in 10 mM azide, 0.1M KPi, pH 7.2, at 22° C.
Molecule,Ki (subtilisin) [nM],cleavage rate in the absence of azide (GA-PFRAL-S-GB) [min⁻¹],"rate of GB release (GA-PLFRAL-S-GB; 0.1M KPO4, pH 7.2, no azide, 22° C.) [s⁻¹]",rate of GB release (GA-PLFRAL-S-GB; saturating azide) [s⁻¹],azide dependent rate enhancement (GA-PLFRAL-S-GB; saturating azide versus no azide),deacylation rate [1] [s⁻¹],processing of the fusion protein (GB-LFRAL-SA-GFP)
B1,540,,,,,,
B2,,0.12,0.0019,6.4,about 3300 fold,3.3,correctly and specifically processed
